The labels stand for the following.
T1: 人CD38胞外段Flag标签蛋白 hCD38-ECD-Flag (human, UniProt P28907 43-300)
T1 construct: range 43-300; No linker between CD38 and the tag is stated; also called hCD38-Flag
T1 sequence: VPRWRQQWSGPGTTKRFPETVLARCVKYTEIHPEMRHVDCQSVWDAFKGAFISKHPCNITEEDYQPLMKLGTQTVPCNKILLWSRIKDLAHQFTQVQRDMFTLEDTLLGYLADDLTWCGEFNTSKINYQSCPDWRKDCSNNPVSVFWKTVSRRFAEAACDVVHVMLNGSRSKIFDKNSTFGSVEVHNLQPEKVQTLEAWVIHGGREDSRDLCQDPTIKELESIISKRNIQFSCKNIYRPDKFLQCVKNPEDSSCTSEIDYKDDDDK

T2: 食蟹猴CD38胞外段Flag标签蛋白 cyno-CD38-ECD-Flag (cynomolgus monkey, UniProt Q5VAN0 44-301)
T2 construct: range 44-301; No linker between CD38 and the tag is stated; also called cyno-CD38-Flag
T2 sequence: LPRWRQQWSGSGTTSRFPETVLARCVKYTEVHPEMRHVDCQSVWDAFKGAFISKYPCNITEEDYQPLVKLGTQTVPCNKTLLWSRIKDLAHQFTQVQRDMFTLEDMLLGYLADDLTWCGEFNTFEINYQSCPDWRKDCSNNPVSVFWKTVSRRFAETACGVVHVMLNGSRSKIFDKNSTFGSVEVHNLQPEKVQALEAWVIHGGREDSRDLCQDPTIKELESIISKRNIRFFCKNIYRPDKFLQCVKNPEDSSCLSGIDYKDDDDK

B1: 人源化抗人CD38单克隆抗体145H (antibody, human IgG1, kappa, V domains shown)
VH: QVQLVQSGAEVKKPGASVKVSCKASGYTFTNYLIDWVRQAPGQGLEWIGLINPGSGSTKYNEKFKGRVTLTADKSTSTAYMELSSLRSEDTAVYYCAKTGTLPYWGQGTLVTVSS
VL: DIQMTQSPSSLSASVGDRVTITCKASQNVGTSVAWYQQKPGKAPKLLIYSTSYRSSGVPSRFSGSGSGTDFTLTISSLQPEDFATYYCQQYGSYPLTFGQGTKVEIKR
notes: also called 145号抗体的人源化抗体
B2: 人源化抗人CD38单克隆抗体116H (antibody, human IgG1, kappa, V domains shown)
VH: QVTLKESGPALVKPTQTLTLTCTLSGFSLSTSRMGVGWIRQPPGKGLEWLAHIWWDDDKRYNPALKSRLTISKDTSSNQVFLKIASVDKEDTATYYCGRIEVGRGAWFAYWGQGTLVTVSS
VL: EIVLTQSPATLSLSPGERVSVTCKASQDVVTTVAWYQQKPGQAPRTLIYSASYRYSGVPARFSGSGSGTDFTLTISSLEPEDFAVYYCQQYYTYPFTFGQGTKVEIKR
notes: also called 116号抗体的人源化抗体
B3: 人源化抗人CD38单克隆抗体105H (antibody, human IgG1, kappa, V domains shown)
VH: QVQLVQSGAEVKKPGASVKVSCKASGYTFTSYWMHWVRQAPGQGLEWIGHINPSSGYSEYSQKFKDRATLTADKSTSTAYMELSSLRSEDTAVYYCEIYYYVSRYVGDSWGQGTLVTVSS
VL: DIQMTQSPSSLSASVGDRVTITCRASQEISGYLSWLQQKPGKTIKRLIYAASTLDSGVPSRFSGSRSGSDFTLTISSLQPEDFATYYCLQYDSYPLTFGQGTKVEIKR
notes: Humanized IgG1; also called 105-Humanization; 105号抗体的人源化抗体
B4: 人源化抗人CD38单克隆抗体57H (antibody, human IgG1, kappa, V domains shown)
VH: EVQLVESGGGLVQPGGSLRLSCAASGFTFSSFGMHWVRQAPGKGLEWVAYIGGDSNIIYYADTVKGRFTISRDNSKNTLYLQMNSLRAEDTAVYYCAKSHDYTMDYWGQGTLVTVSS
VL: DIVMTQSPSSLAVSLGERVTITCKSSQSLLYSTNQKNYLAWFQQKPGQSPKLLIYWASTRESGVPDRFSGSGSGTDFTLTISSLQAEDVAVYYCQRYYNYPYTFGQGTKVEIKR
notes: also called 57号抗体的人源化抗体

By Kd is commonly meant a measure of binding affinity in units of concentration. Low readings indicate a tighter complex, high ones a looser complex. The term koff denotes the rate constant with which the complex falls apart. As a reminder, the kon is the rate constant with which the complex forms. A high value points to fast association.

The target in one assay is T1, 人CD38胞外段Flag标签蛋白 hCD38-ECD-Flag. Nature of the assay: SPR, Biacore T200; antibody captured on Protein A CM5 chip, hCD38-Flag as analyte. (In general: Surface plasmon resonance follows binding to a sensor surface in real time, without labels.)
B1 came in with a Kd of 3.22 nM, a koff of 0.00198 s⁻¹ and an on-rate constant (kon) of 612000 M⁻¹ s⁻¹.
For B2 the same measures were 0.065 nM, 9.53e-05 s⁻¹ and 1.47e+06 M⁻¹ s⁻¹.
As to B3, binding was put at a Kd of 32.8 nM, the koff worked out at 0.000975 s⁻¹ and the kon was 29800 M⁻¹ s⁻¹.
In turn, B4 returned a Kd of 0.382 nM, a koff of 0.000101 s⁻¹ and a kon of 264000 M⁻¹ s⁻¹.

The next assay addresses T2, 食蟹猴CD38胞外段Flag标签蛋白 cyno-CD38-ECD-Flag. In words: SPR, Biacore T200; antibody captured on Protein A CM5 chip, cyno-CD38-Flag as analyte.
B1 showed a dissociation constant (Kd) of 40.2 nM, a koff of 0.00393 s⁻¹ and a kon of 97800 M⁻¹ s⁻¹.
For B2, in that order: 0.405 nM, 0.000102 s⁻¹ and 251000 M⁻¹ s⁻¹.
B3 displayed a dissociation constant (Kd) of 3.4 nM, a koff of 0.000208 s⁻¹ and an on-rate (kon) of 61100 M⁻¹ s⁻¹.
For B4 the same measures were 1.68 nM, 9.2e-05 s⁻¹ and 54900 M⁻¹ s⁻¹.

Source of the values: patent CN114437215A (SHANGHAI MAIJI BIOTECHNOLOGY CO LTD, dated 2022).
